According to patent US20240270821A1, “GIP/GLP1/GCG TRI-RECEPTOR AGONISTS AND USES THEREOF” (priority 2023, published 2024):
Numbering of substitutions follows the chain as printed.

T1: human GIP receptor (human) (UniProt P48546)
T1 sequence (looked up): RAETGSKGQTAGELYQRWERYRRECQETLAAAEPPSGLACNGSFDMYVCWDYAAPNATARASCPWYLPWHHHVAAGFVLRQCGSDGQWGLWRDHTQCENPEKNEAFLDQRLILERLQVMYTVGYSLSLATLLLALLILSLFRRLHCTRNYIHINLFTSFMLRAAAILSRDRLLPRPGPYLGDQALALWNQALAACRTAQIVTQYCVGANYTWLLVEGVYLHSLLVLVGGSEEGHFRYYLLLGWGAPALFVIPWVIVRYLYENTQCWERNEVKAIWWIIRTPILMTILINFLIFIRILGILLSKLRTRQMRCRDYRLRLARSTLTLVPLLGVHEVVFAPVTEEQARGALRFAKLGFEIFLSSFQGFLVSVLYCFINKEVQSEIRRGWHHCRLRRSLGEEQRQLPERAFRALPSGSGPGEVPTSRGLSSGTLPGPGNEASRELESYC

B1: Example 393 (peptide)
chain: YXQGTXTSDYXILLDKKAQXAFIEYLEEGGPSSGAPPPS
modifications: synthetic construct; SITE 2: note = 2-Aminoisobutyric Acid; SITE 6: note = alpha-methyl-L-phenylalanine; SITE 11: note = alpha-methyl-L-serine; SITE 17: note = Lysine is chemically modified through conjugation of the epsilon-amino group of the Lysine side chain with (2-[2-(2-Amino-ethoxy)-ethoxy]-ac)
B2: Example 394 (peptide)
chain: B1 chain with X11S, L13X
modifications: synthetic construct; SITE 2: note = 2-Aminoisobutyric Acid; SITE 6: note = alpha-methyl-L-phenylalanine; SITE 13: note = alpha-methyl-leucine; SITE 17: note = Lysine is chemically modified through conjugation of the epsilon-amino group of the Lysine side chain with (2-[2-(2-Amino-ethoxy)-ethoxy]-ace)
B3: Example 395 (peptide)
chain: YXQGTXTSDYSIXLDKKAQXAFIEYLEEGGPSSGAPPPSEG
modifications: synthetic construct; SITE 2: note = 2-Aminoisobutyric Acid; SITE 6: note = alpha-methyl-L-phenylalanine; SITE 13: note = alpha-methyl-leucine; SITE 17: note = Lysine is chemically modified through conjugation of the epsilon-amino group of the Lysine side chain with (2-[2-(2-Amino-ethoxy)-ethoxy]-ace)
B4: Example 396 (peptide)
chain: B1 chain with X11S, L13X, S39E
modifications: synthetic construct; SITE 2: note = 2-Aminoisobutyric Acid; SITE 6: note = alpha-methyl-L-phenylalanine; SITE 13: note = alpha-methyl-leucine; SITE 17: note = Lysine is chemically modified through conjugation of the epsilon-amino group of the Lysine side chain with (2-[2-(2-Amino-ethoxy)-ethoxy]-ace)
B5: Example 397 (peptide)
chain: B1 chain with X11S, L13X, K16X, S39E
modifications: not fully specified; synthetic construct; SITE 2: note = 2-Aminoisobutyric Acid; SITE 6: note = alpha-methyl-L-phenylalanine; SITE 13: note = alpha-methyl-leucine; SITE 16: note = L-ornithine; SITE 17: note = Lysine is chemically modified through conjugation of the epsilon-amino group of the Lysine side chain with (2-[2)
B6: Example 398 (peptide)
chain: B3 chain with X13L
modifications: not fully specified; synthetic construct; SITE 2: note = 2-Aminoisobutyric Acid; SITE 6: note = alpha-methyl-2-fluoro-L-phenylalanine; SITE 17: note = Lysine is chemically modified through conjugation of the epsilon-amino group of the Lysine side chain with (2-[2-(2-Amino-ethoxy)-ethoxy]-acetyl)-(gamma-Glu)-CO-(CH2) 16-
B7: Example 36 (peptide)
chain: YXQGTFTSDFSKXLDKKAQXAFIEYLLEGGPSSGEPPPTEG
modifications: C-terminal amide; acylated lysine; synthetic construct; SITE 2: note = 2-Aminoisobutyric Acid; SITE 13: note = alpha-methyl-leucine; SITE 17: note = Lysine is chemically modified through conjugation of the epsilon-amino group of the Lysine side chain with (2-[2-(2-Amino-ethoxy)-ethoxy]-acetyl)-(gamma-Glu)-CO-(CH2) 18-CO2H; SITE 20: n
B8: Example 399 (peptide)
chain: B3 chain with X13L, S39E
modifications: synthetic construct; SITE 2: note = 2-Aminoisobutyric Acid; SITE 6: note = alpha-methyl-2-fluoro-L-phenylalanine; SITE 17: note = Lysine is chemically modified through conjugation of the epsilon-amino group of the Lysine side chain with (2-[2-(2-Amino-ethoxy)-ethoxy]-acetyl)-(gamma-Glu)-CO-(CH2) 16-
B9: Example 400 (peptide)
chain: B1 chain with X11S, L13X, S39E
modifications: synthetic construct; SITE 2: note = 2-Aminoisobutyric Acid; SITE 6: note = alpha-methyl-2-fluoro-L-phenylalanine; SITE 13: note = alpha-methyl-leucine; SITE 17: note = Lysine is chemically modified through conjugation of the epsilon-amino group of the Lysine side chain with (2-[2-(2-Amino-ethoxy)-et)
B10: Example 401 (peptide)
chain: YXQGTXTSDXXIXLDXKAQXXFIEXLIEGGPSSGEPPPSEG
modifications: synthetic construct; SITE 2: note = 2-Aminoisobutyric Acid; SITE 6: note = alpha-methyl-2-fluoro-L-phenylalanine; SITE 10: note = 3-(4-Pyridyl)-L-alanine; SITE 11: note = alpha-methyl-L-serine; SITE 13: note = alpha-methyl-leucine; SITE 16: note = L-ornithine; SITE 17: note = Lysine is chemically mo
B11: Example 402 (peptide)
chain: YXQGTXTSDYXIXLDXKAQXXFIEXLEEGGPSSGEPPPE
modifications: synthetic construct; SITE 2: note = 2-Aminoisobutyric Acid; SITE 6: note = alpha-methyl-2-fluoro-L-phenylalanine; SITE 11: note = alpha-methyl-L-serine; SITE 13: note = alpha-methyl-leucine; SITE 16: note = L-ornithine; SITE 17: note = Lysine is chemically modified through conjugation of the epsilon
B12: Example 403 (peptide)
chain: B10 chain with X10Y, I27E, S39E
modifications: synthetic construct; SITE 2: note = 2-Aminoisobutyric Acid; SITE 6: note = alpha-methyl-2-fluoro-L-phenylalanine; SITE 11: note = alpha-methyl-L-serine; SITE 13: note = alpha-methyl-leucine; SITE 16: note = L-ornithine; SITE 17: note = Lysine is chemically modified through conjugation of the epsilon
B13: Example 404 (peptide)
chain: B3 chain with K16X, E27L
modifications: synthetic construct; SITE 2: note = 2-Aminoisobutyric Acid; SITE 6: note = alpha-methyl-2-fluoro-L-phenylalanine; SITE 13: note = alpha-methyl-leucine; SITE 16: note = L-ornithine; SITE 17: note = Lysine is chemically modified through conjugation of the epsilon-amino group of the Lysine side chain w
B14: Example 405 (peptide)
chain: B7 chain with L27A, E28A, T39S, E40G, G41E
modifications: synthetic construct; SITE 2: note = 2-Aminoisobutyric Acid; SITE 13: note = alpha-methyl-leucine; SITE 17: note = Lysine is chemically modified through conjugation of the epsilon-amino group of the Lysine side chain with (epsilon-K)2-(gamma-Glu)-CO-(CH2)18-CO2H; SITE 20: note = 2-Aminoisobutyric Aci

target: hGLP-1R (Homo sapiens, UniProt P43220); assay: cell-based or functional assay
Sequence (P43220 24-463): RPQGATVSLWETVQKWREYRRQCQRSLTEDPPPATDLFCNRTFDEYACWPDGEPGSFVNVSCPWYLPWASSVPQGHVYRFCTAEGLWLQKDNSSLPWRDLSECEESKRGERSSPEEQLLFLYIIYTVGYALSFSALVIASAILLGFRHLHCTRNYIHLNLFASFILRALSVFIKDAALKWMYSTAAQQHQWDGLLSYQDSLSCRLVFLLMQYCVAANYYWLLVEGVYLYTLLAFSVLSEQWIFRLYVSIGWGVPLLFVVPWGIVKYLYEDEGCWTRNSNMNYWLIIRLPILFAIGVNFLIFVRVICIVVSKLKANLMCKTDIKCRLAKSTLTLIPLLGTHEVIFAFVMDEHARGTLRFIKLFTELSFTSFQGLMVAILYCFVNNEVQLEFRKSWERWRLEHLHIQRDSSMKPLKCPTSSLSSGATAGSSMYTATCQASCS

Binder | Relative cAMP EC50 [nM] | cAMP Rel EC50, nM (1% HSA) [nM] | cAMP Rel EC50 (in the presence of 1% HSA) [nM]
B1 | 0.211 | 29.6 | 
B2 |  | 33.2 | 
B3 | 0.349 | 34.7 | 
B4 | 0.293 | 38.2 | 
B5 | 0.2 | 34.9 | 
B6 | 0.186 | 42.2 | 
B7 | 3.57 |  | 1360
B8 | 0.302 | 42.8 | 
B9 | 0.253 | 29.1 | 
B10 | 0.213 | 12 | 
B11 | 0.725 | 86.6 | 
B12 | 0.396 | 70 | 
B13 | 0.217 | 32.2 | 
B14 | 1.48 | 285 | 

target: T1, human GIP receptor (human); assay: cell-based or functional assay

Binder | Relative cAMP EC50 [nM] | cAMP Rel EC50, nM (1% HSA) [nM] | cAMP Rel EC50 (in the presence of 1% HSA) [nM]
B1 | 0.0458 | 12.4 | 
B2 |  | 7.22 | 
B3 | 0.0248 | 6.69 | 
B4 | 0.024 | 9.5 | 
B5 | 0.0247 | 10.1 | 
B6 | 0.0318 | 12.4 | 
B7 | 0.482 |  | 170
B8 | 0.0413 | 19.6 | 
B9 | 0.0158 | 3.86 | 
B10 | 0.0183 | 1.71 | 
B11 | 0.123 | 44.9 | 
B12 | 0.0827 | 36.9 | 
B13 | 0.0102 | 2.03 | 
B14 | 0.28 | 32.1 | 

target: human glucagon receptor (human) (UniProt P47871); assay: cell-based or functional assay
Sequence (P47871 26-477): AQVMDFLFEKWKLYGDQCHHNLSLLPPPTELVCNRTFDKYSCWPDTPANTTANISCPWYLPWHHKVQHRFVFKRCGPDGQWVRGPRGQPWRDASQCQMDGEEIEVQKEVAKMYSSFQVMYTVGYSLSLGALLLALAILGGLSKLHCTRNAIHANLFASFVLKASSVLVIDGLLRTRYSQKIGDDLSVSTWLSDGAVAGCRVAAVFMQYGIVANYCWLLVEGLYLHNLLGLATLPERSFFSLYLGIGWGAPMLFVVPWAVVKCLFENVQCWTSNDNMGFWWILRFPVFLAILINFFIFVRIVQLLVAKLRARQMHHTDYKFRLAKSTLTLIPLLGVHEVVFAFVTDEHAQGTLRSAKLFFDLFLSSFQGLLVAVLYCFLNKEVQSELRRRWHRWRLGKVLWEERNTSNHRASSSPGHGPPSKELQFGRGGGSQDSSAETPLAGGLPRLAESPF

Binder | Relative cAMP EC50 [nM] | cAMP Rel EC50, nM (1% HSA) [nM] | cAMP Rel EC50 (in the presence of 1% HSA) [nM]
B1 | 0.947 | 151 | 
B2 |  | 1090 | 
B3 | 5.55 | 1190 | 
B4 | 4.99 | 468 | 
B5 | 5.22 | 1110 | 
B6 | 2.16 | 375 | 
B7 | 4.32 |  | 1330
B8 | 1.51 | 560 | 
B9 | 2.53 | 265 | 
B10 | 1.99 | 111 | 
B11 | 5.66 | 1030 | 
B12 | 1.59 | 527 | 
B13 | 4.1 | 735 | 
B14 | 15.5 | 2530 | 
